What all share (conditions): both partners purified
For one assay, the target named is T1, recombinant CCT4 (Homo sapiens, UniProt P50991).
T1 construct: CCT4 subunit of TRiC, expressed recombinantly; Construct not described
The assay can be described thus: BLI; Octet RED384, 25 °C, 20 mM HEPES pH 7.5, 150 mM NaCl, 0.1% BSA; biotinylated CCT5 on streptavidin sensors; Nb18 40 μM to 39 nM; steady-state fit. For orientation: BLI is a label-free optical method that tracks binding on a fibre tip over time.

Assay [1] concerns the target T2, recombinant human CCT5 homo-oligomer (hexadecameric form, CCT5_(16)) (Homo sapiens (Human)., UniProt P48643, biotin (for BLI)).
T2 construct: it mentions that recombinant CCT5 was earlier made with a C-terminal His-tag; also called recombinant CCT5; overexpressed CCT5; source: E. coli, recombinant; copies: 16
Described as above.

Assay [2] concerns the target T3, endogenous human TCP-1 ring complex (TRiC), CCT5 tagged with 3×FLAG/Spytag (human, UniProt P17987;P78371;P49368;P50991;P48643;P40227;Q99832;P50990).
T3 construct: CCT1 subunit of human TRiC; CCT2 subunit of human TRiC; CCT3 subunit of human TRiC; CCT4 subunit of human TRiC; CCT5 subunit of human TRiC, tag knocked into the genomic locus; CCT6 subunit of human TRiC; predominantly the CCT6A isoform by MS/MS and side-chain modelling; CCT7 subunit of human TRiC; CCT8 subunit of human TRiC; Hexadecamer of two back-to-back rings of eight paralogous subunits; also …
Briefly: cryo-EM structure; purified TRiC (1.5 mg/ml) premixed with Nb18 at 1:1 molar ratio, 1 mM ATP, 5 mM MgCl2, AlFx; closed and open states.

T2 sequence (P48643 whole entry): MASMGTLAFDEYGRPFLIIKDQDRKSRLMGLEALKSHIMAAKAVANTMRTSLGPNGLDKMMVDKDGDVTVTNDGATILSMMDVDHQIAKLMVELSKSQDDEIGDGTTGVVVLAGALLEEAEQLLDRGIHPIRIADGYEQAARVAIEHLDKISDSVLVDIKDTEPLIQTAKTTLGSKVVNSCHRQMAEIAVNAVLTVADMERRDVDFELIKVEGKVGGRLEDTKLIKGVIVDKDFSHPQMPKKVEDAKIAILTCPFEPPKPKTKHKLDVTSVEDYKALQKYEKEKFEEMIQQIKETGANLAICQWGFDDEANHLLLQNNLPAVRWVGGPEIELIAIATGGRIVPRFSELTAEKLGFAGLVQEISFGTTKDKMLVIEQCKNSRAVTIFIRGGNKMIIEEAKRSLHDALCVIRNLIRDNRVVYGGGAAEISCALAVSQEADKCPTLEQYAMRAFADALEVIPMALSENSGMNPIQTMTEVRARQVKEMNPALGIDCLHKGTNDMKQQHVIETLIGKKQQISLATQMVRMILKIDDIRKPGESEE
T1 sequence (P50991 whole entry): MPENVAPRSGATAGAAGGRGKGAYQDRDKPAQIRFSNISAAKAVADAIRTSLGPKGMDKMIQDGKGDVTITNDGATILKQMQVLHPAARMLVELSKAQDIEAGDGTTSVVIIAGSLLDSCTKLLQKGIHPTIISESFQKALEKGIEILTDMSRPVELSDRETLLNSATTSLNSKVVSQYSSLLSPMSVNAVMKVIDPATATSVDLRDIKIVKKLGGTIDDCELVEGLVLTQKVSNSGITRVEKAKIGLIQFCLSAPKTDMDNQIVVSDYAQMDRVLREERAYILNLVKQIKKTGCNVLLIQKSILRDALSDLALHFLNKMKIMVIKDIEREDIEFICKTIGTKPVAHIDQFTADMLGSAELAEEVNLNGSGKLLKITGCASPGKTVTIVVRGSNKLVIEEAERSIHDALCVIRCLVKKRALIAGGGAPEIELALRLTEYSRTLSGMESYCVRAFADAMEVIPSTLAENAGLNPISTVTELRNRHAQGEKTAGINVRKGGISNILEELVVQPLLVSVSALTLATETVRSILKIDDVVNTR

B1: nanobody Nb18 (VHH)
VHH: QVQLVESGGGLVQAGGSLRLSCGASGTFFRINDMGWYRQASGKQRELVASITRGGTTDYADSVKGRFTISRDNAKNTVYLQMNSLKPEDTAVYYCKANRNWGREWDDYWGQGTQVTVSS
notes: Nb18 is modelled in the TRiC–Nb18 structure solved here (PDB 7NVL); llama nanobody raised against CCT5 homo-hexadecamer, in vector pMESy4; Starting model was a homology model on PDB 6QX4 chain C (another nanobody); also called CA14679; source: E. coli, purified (Ni-NTA, SEC)
As for B1, the binding result in the assay with recombinant CCT4 is “no binding (tested: Nb18 40 μM to 39 nM (methods))”. For the same molecule, the Kd in assay [1] is 86 nM. Also, the “stoichiometry N” value in assay [2] was found to be 2.

As a reminder, the Kd is the equilibrium constant for the complex coming apart. One may read the stoichiometry N as the number of molecules, sites or subunits per partner or assembly.

Values taken from paper PMC9113939, “Snapshots of actin and tubulin folding inside the TRiC chaperonin” (Nature Structural & Molecular Biology, 2022).
